Measured values published in patent publication US20180049457A1, “ENZYMATIC SYNTHESIS OF SOLUBLE GLUCAN FIBER” (E I DU PONT DE NEMOURS AND COMPANY, priority 2014, published 2018).
Numbering of substitutions follows the chain as printed.

Assay: GTF activity of strains (PAHBAH assay)
Assay type: biochemical
Conditions: enzyme expressed in B. subtilis host
Outline: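 Glucosyltransferase (GTF) activity of the bacterial strains was measured with the PAHBAH assay. The enzymes tested were truncated GTF variants produced in a Bacillus subtilis expression host. Measurements were split across three separate experiments, and each activity value is reported together with the experiment it came from because results varied slightly between experiments.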

B1: GTF0974T6: T6 C-terminal truncation of GTF0974, SEQ ID NO: 140, strain SG1306 (protein)
chain: INGKQYYVNSDGSVRKNFVFEQDGKSYYFDAETGALATKSQDEFSTEPIKATVDFSSGNQLYKNDDKSLDQLDTFITADAWYRPKSILKDGKTWTASTEADKRPLLMVWWPDKSTQVNYLNYMQNQGLGAGSFSTNSSQESLDQAAKAVQTKIEERIAREGNTNWLRTSIDQFIKTQPGWNSSTENSSYDHLQGGQLLFNNSKGDTGNRTSHANSDYRLLNRTPTNQTGTRKYFKDNSIGGLEFLLANDIDNSNPAVQAEQLNWLHFMMNIGSIMANDPTANFDGLRVDALDNVDADLLQIASDYFKAAYGVDKSEANAIKHLSYLEAWSANDPYYNKDTKGAQLPIDNALRNALTNLLMRDKNTRMQLGDMTAFINSSLNPRGANDKNGERMANYIFTRAHDTEAQTIIQRIIRDRINPNLFGYNFTRDEIKKAFEIYNEDIDKAHKTYASYNLPSVYALMLTNKDSVTRVYYGDLYREDGHYMAKKTPYFDAIDTLLRARIKYVAGGQDMEVKKVGNDGLLTSVRYGKGANNRTDLGTSETRTQGMGVIMTNNYDFRLGSNETVTMNMGRAHRNQLYRPLLLTTKDGIATYLNDSDVPKKLLKRTDWNGNLTFNANDVFGVENVQVSGYLGVWVPYGAKANQDARTQPSNRANSDGQVYKSSAALDSQVMYEAFSNFQAFADDQPELYMNRVLAKNTDLLKAWGITSVGLPPQYVSSKDGTFLDSTIDNGYAFDDRYDMALSQNNKYGSLEDLLNVLRALHKDGIQAIADWVPDQIYNLPGKEVVNATRVNGYGNHQVGYQIIDQAYVANTRTDGTDYQGKYGGAFLDELKAKYPSIFNRVQISNGKQLPTNEKITKWSAKYFNGTNILGRGINYVLRDDKTNQYFNTSANSQLLPTPLRDTGAITSTQVFQRRGQDVYFLRDNQAVKNEFVQDGNGNWYYFGGDGKMTKGAQNINNKDYYFFDNGIQLRNALRRASNGYTYYYGLDGAMVKNAFVDFDDKHKQVRAFTTQG
modifications: T6 C-terminal truncation of GTF0974
- GTF activity of strains: Acitivity (Experiment Number 1): 33.7 U/mL

B2: GTF0974T1: T1 C-terminal truncation of GTF0974, SEQ ID NO: 136, strain SG1304 (protein)
chain: INGKQYYVNSDGSVRKNFVFEQDGKSYYFDAETGALATKSQDEFSTEPIKATVDFSSGNQLYKNDDKSLDQLDTFITADAWYRPKSILKDGKTWTASTEADKRPLLMVWWPDKSTQVNYLNYMQNQGLGAGSFSTNSSQESLDQAAKAVQTKIEERIAREGNTNWLRTSIDQFIKTQPGWNSSTENSSYDHLQGGQLLFNNSKGDTGNRTSHANSDYRLLNRTPTNQTGTRKYFKDNSIGGLEFLLANDIDNSNPAVQAEQLNWLHFMMNIGSIMANDPTANFDGLRVDALDNVDADLLQIASDYFKAAYGVDKSEANAIKHLSYLEAWSANDPYYNKDTKGAQLPIDNALRNALTNLLMRDKNTRMQLGDMTAFINSSLNPRGANDKNGERMANYIFTRAHDTEAQTIIQRIIRDRINPNLFGYNFTRDEIKKAFEIYNEDIDKAHKTYASYNLPSVYALMLTNKDSVTRVYYGDLYREDGHYMAKKTPYFDAIDTLLRARIKYVAGGQDMEVKKVGNDGLLTSVRYGKGANNRTDLGTSETRTQGMGVIMTNNYDFRLGSNETVTMNMGRAHRNQLYRPLLLTTKDGIATYLNDSDVPKKLLKRTDWNGNLTFNANDVFGVENVQVSGYLGVWVPYGAKANQDARTQPSNRANSDGQVYKSSAALDSQVMYEAFSNFQAFADDQPELYMNRVLAKNTDLLKAWGITSVGLPPQYVSSKDGTFLDSTIDNGYAFDDRYDMALSQNNKYGSLEDLLNVLRALHKDGIQAIADWVPDQIYNLPGKEVVNATRVNGYGNHQVGYQIIDQAYVANTRTDGTDYQGKYGGAFLDELKAKYPSIFNRVQISNGKQLPTNEKITKWSAKYFNGTNILGRGINYVLRDDKTNQYFNTSANSQLLPTPLRDTGAIT
modifications: T1 C-terminal truncation of GTF0974
- GTF activity of strains: Acitivity (Experiment Number 1): 18.4 U/mL

B3: GTF4336T1: T1 C-terminal truncation of GTF4336, SEQ ID NO: 142, strain SG1307 (protein)
chain: B2 chain with L594F, K602N, Y638V, I707V, N797Y, V800Q, I805V
modifications: T1 C-terminal truncation of GTF4336
- GTF activity of strains: Acitivity (Experiment Number 1): 9.4 U/mL

B4: GTF0974T2: T2 C-terminal truncation of GTF0974, SEQ ID NO: 138, strain SG1305 (protein)
chain: INGKQYYVNSDGSVRKNFVFEQDGKSYYFDAETGALATKSQDEFSTEPIKATVDFSSGNQLYKNDDKSLDQLDTFITADAWYRPKSILKDGKTWTASTEADKRPLLMVWWPDKSTQVNYLNYMQNQGLGAGSFSTNSSQESLDQAAKAVQTKIEERIAREGNTNWLRTSIDQFIKTQPGWNSSTENSSYDHLQGGQLLFNNSKGDTGNRTSHANSDYRLLNRTPTNQTGTRKYFKDNSIGGLEFLLANDIDNSNPAVQAEQLNWLHFMMNIGSIMANDPTANFDGLRVDALDNVDADLLQIASDYFKAAYGVDKSEANAIKHLSYLEAWSANDPYYNKDTKGAQLPIDNALRNALTNLLMRDKNTRMQLGDMTAFINSSLNPRGANDKNGERMANYIFTRAHDTEAQTIIQRIIRDRINPNLFGYNFTRDEIKKAFEIYNEDIDKAHKTYASYNLPSVYALMLTNKDSVTRVYYGDLYREDGHYMAKKTPYFDAIDTLLRARIKYVAGGQDMEVKKVGNDGLLTSVRYGKGANNRTDLGTSETRTQGMGVIMTNNYDFRLGSNETVTMNMGRAHRNQLYRPLLLTTKDGIATYLNDSDVPKKLLKRTDWNGNLTFNANDVFGVENVQVSGYLGVWVPYGAKANQDARTQPSNRANSDGQVYKSSAALDSQVMYEAFSNFQAFADDQPELYMNRVLAKNTDLLKAWGITSVGLPPQYVSSKDGTFLDSTIDNGYAFDDRYDMALSQNNKYGSLEDLLNVLRALHKDGIQAIADWVPDQIYNLPGKEVVNATRVNGYGNHQVGYQIIDQAYVANTRTDGTDYQGKYGGAFLDELKAKYPSIFNRVQISNGKQLPTNEKITKWSAKYFNGTNILGRGINYVLRDDKTNQYFNTSANSQLLPTPLRDTGAITSTQVFQRRGQDVYFLRDNQAVKNEFVQDGNGNWYYFGGDG
modifications: T2 C-terminal truncation of GTF0974
- GTF activity of strains: Acitivity (Experiment Number 1): 7.2 U/mL

B5: GTF0459nativeNT: truncated Streptococcus sp. C150 Gtf-S glucosyltransferase, SEQ ID NO: 19, strain SG1273 (protein, listed as Streptococcus sp.)
chain: MINGKQYYVNSDGSVRKNFVFEQDGKSYYFDAETGALATKSQDEFSTEPIKAAVDFSSGNQLYKNDNKSLDQLDTFITADAWYRPKSILKDGKTWTASTEADKRPLLMVWWPDKSTQVNYLNYMQNQGLGAGSFSTNSSQESLNLAAKAVQTKIEERIAREGNTNWLRTSIDQFIKTQPGWNSSTENSSYDHLQGGQLLFNNSKGDTGNRTSYANSDYRLLNRTPTNQSGTRKYFKDNSIGGLEFLLANDIDNSNPAVQAEQLNWLHFMMNIGSIMANDPTANFDGLRVDALDNVDADLLQIASDYFKAVYGVDKSEANAIKHLSYLEAWSANDPYYNKDTKGAQLPIDNALRNALTNLLMRDKNTRMQLGDMTAFMNSSLNPRGANDKNGERMANYIFTRAHDTEAQTIIQRIIRDRINPNLFGYNFTRDEIKKAFEIYNADINTAHKTYASYNLPSVYALMLTNKDSVTRVYYGDLYREDGHYMAKKTPYFDAIDTLLRARIKYVAGGQDMEVKKVGNDGLLTSVRYGKGANNSTDWGTTETRTQGMGVILTNNYDFRLGSNETVTMNMGRAHRNQLYRPLLLTTKDGLATYLNDSDVPSNLLKRTDWNGNLTFNANDVFGVENVQVSGYLGVWVPVGAKANQDARTQPSNRANSDGQVYKSSAALDSQVMYEAFSNFQAFADDQPELYMNRVLAKNTDLLKAWGVTSVGLPPQYVSSKDGTFLDSTIDNGYAFDDRYDMALSQNNKYGSLEDLLNVLRALHKDGIQAIADWVPDQIYNLPGKEVVNATRVNGYGYHQQGYQIVDQAYVANTRTDGTDYQGRYGGAFLDELKAKYPSIFNRVQISNGKQLPTNEKITKWSAKYFNGTNILGRGINYVLRDDKTNQYFNTSANGQLLPTPLRDTGAITSTQVFQRRGQDVYFLRDNQVIKNEFVQDGNGNWYYFGADGKMTKGAQNINSKDYYFFDNGVQLRNALRRASNGYTYYYGLDGAMIKNAFVDFDDKHQQVRAFTTQGTMVVGNLHWSGHHFYFDRETGIQAKDRIVRTDDGKLHYYVAQTGDMGRNVFATDSRTGKRYYFDADGNTVTGSRVIDGKTYYFNQDGSVGTAYSNRADSIIFENGKARYITPAGEIGRSIFVYNPATKAWNYFDKEGNRVTGRQYIDGNLYYFKEDGSQVKGAIVEENGIKYYYEPGSGILASGRYLQVGDDQWIYFKHDGSLAIGQVRADGGYLKYFDKNGIQVKGQTIVEDGHTYYYDADSGALVTSSFAEIAPNQWAYFNTEGQALKGKWTINGKEYYFDQNGIQYKGKAVKVGSRYKYYDENDGQPVTNRFAQIEPNVWAYFGADGYAVTGEQVINGQHLYFDQSGRQVKGAYVTVNGQRRYYDANTGEYIPGR
- GTF activity of strains: Acitivity (Experiment Number 1): 26.5 U/mL
- GTF activity of strains: Acitivity (Experiment Number 2): 39.4 U/mL
